Paper PMC6940360

Target: Taxol-stabilized microtubules (MTs) from HeLa S3 cells (human (endogenous in HeLa S3)) (UniProt P68363)
Experiment: solid-state NMR (J-based 2D 15N-HSQC); unlabeled MAP7-MTBD added to [13C,15N]-labeled MTs at molar ratio 2:1 MAP7-MTBD:MT in BRB80 with 20 uM taxol, 30 °C for 30 min, pelleted at 180,000 x g; MAS 44 kHz, actual temperature 293 K; bound population from a two-state model, P_bound = 1 - I_bound/I_free

bound population of alpha-tubulin Tyr451 (P bound): 65%
bound population of beta-tubulin Ala444 (P bound): 25%
bound population of tail residues around the EGE and FGE segments (P bound): < 80%
B1: MAP7-MTBD (microtubule-binding domain of MAP7D3, residues 59-170) (domain or fragment)
chain: DGSMLKNDIKQRLARERREEKRRQQDANKETQLLEKERKTKLQYEKQMEERQRKLKERKEKEEQRRIAAEEKRHQKDEAQKEKFTAILYRTLERRRLADDYQQKRWSWGGSA
